“And” between values parts separate entries of the source, which are not always exact repeats. Identical values can stand only once. Like-named read-outs stand apart in the source and are kept apart here.
Columns and labels:
[1] = system: COVID-19 (SARS-CoV-2); settings: cited from earlier work; for Mean Days to Discharge (**median): Lopinavir/Ritonavir cohort
[2] = system: COVID-19 associated chronic ARDS (SARS-CoV-2); type: in vivo, human; settings: one patient
Experimental: Hospitalized subject with confirmed COVID-19 pneumonia and established risk factors for poor outcomes was treated in the ICU for 12 weeks using standard supportive care for chronic acute respiratory distress syndrome (ARDS). […] Patient characteristics, clinical and laboratory outcomes, and adverse events were recorded through duration of hospitalization.
Over the course of their ICU stay, the patient developed acute respiratory distress syndrome (ARDS).

[3] = molecular target: human GM-CSF (Homo sapiens, UniProt P04141); assay: Binding of lenzilumab to GM-CSF
Sequence of human GM-CSF (P04141 18-144): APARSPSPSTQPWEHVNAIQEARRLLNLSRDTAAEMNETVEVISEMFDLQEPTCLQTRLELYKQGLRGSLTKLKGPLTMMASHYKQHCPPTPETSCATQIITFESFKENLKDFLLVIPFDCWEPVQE

[4] = system: severe COVID-19 pneumonia (SARS-CoV-2); settings: for Incidence of IMV / Incidence of IMV and/or death / Incidence of death / Incidence of clinical improvement: n = 12
[5] = Four completed clinical trials of lenzilumab (healthy volunteers, asthma, rheumatoid arthritis, CMML); type: in vivo, human; settings: 113 individuals in 4 completed trials
[6] = system: severe and critical COVID-19 pneumonia (SARS-CoV-2); settings: for deaths / mortality: data cutoff May 1, 2020; for ALT after lenzilumab / AST after lenzilumab: individual patients: peak (patient 4) or at discharge (patients 5, 8)
[7] = one patient, pretreatment vs 48 hours post-lenzilumab
[8] = 12 patients (same cohort in Examples 8 and 10)
[9] = individual patient narratives, listed as lenzilumab
[10] = patient 5 at discharge, unit not given

For “Tocilizumab: anti-IL6 receptor monoclonal antibody; IL-6 antagonist”, the “Mean Days to Discharge” value ([1]; Tocilizumab cohort) is listed as 13.5 days.

For “lopinavir and ritonavir [Lopinavir/Ritonavir]”, the “Mean Days to Discharge (**median)” value [1] is given as 13** days and the “Mean Days to Discharge (**median)” value ([1]; listed as Lopinavir-Ritonavir) is given as 13 days.

B1: Lenzilumab: Humaneered recombinant monoclonal antibody, derived from mouse antibody LMM102, targeting and neutralizing human GM-CSF (antibody, chains of the INN, looked up, V domains shown)
VH: QVQLVQSGAEVKKPGASVKVSCKASGYSFTNYYIHWVRQAPGQRLEWMGWINAGNGNTKYSQKFQGRVTITRDTSASTAYMELSSLRSEDTAVYYCVRRQRFPYYFDYWGQGTLVTVSS
VL: EIVLTQSPATLSVSPGERATLSCRASQSVGTNVAWYQQKPGQAPRVLIYSTSSRATGITDRFSGSGSGTDFTLTISRLEPEDFAVYYCQQFNKSPLTFGGGTKVEIK
For B1, the lymphopenia post lenzilumab [2] was “appeared to improve”, the “infusion-related or systemic side effects” value ([2]; 600 mg IV every 8 hours, 3 doses) was “No infusion-related or systemic side effects” and the binding affinity [3] was “picomolar range”. For the same molecule, the “patients free of ARDS (SpO2/FiO2 of 315 or higher) by end of observation” value ([4]; 11 patients, P=0.43) was 92%, the “mean SpO2/FiO2 over time post-treatment vs untreated” value ([4]; P<0.001) was “statistically significant difference” and the “CRP reduction (mean)” value ([4]; after 4 days, control −0.95, P .01) was 135.8. For the same molecule, the “IL-6 concentration on day 4” value ([4]; baseline 28.6 pg/mL, P=0.02) was 8.52 pg/mL, the “mean CRP after treatment” value ([4]; baseline 172.2 mg/L, 4 days post-treatment, P=0.04) was 36.4 mg/L and the “mean absolute neutrophil count day 4” value ([4]; baseline 5.1, P=0.27) was 4.8e+09 L⁻¹. For the same molecule, the “mean hemoglobin day 4” value ([4]; baseline 12.9, P=0.89) was 11.4 g/dL, the IL-6 reduction ([4]; baseline vs day 4) was 20.1 and the ALC increase ([4]; control 0.03, P .04) was 0.46 × 10*9/L. The Mean temperature reduction ([4]; control 0.459, P .02) was 1.075, the “PLT increase (mean platelet count from baseline)” value ([4]; control 63.2, P .61) was 52.5 and the “Ventilator-free survival vs untreated group” value ([4]; log-rank x^2=3.67, P=0.06) was “favored”. The “Incidence of IMV” value [4] was “(8%)”, the “Incidence of IMV and/or death” value [4] was “(8%)” and the Incidence of death [4] was “(8%)”. The “Incidence of IMV and/or death” value ([4]; P .07) was 1 patients, the “Incidence of IMV” value ([4]; P .10) was 1 patients and the Incidence of death ([4]; P .43) was 1 patients. The “Incidence of clinical improvement” value ([4]; P .43 vs control) was 11 patients, the “Incidence of clinical improvement” value ([4]; at least 2 points on 8-point scale) was “(92%)” and the “Incidence of clinical improvement” value ([4]; at least 2 points on 8-point scale, listed as lenzilumab) was 92%. For the same molecule, the “Incidence of IMV and/or death” value ([4]; listed as lenzilumab) was 8%, the “cytokines and chemokines involved in the cytokine storm” value [4, 7] was “significant reduction” and the “Days to resolution of fever” value ([4]; range 1-6, P .22) was 2 days. The “Days to clinical improvement (median)” value ([4]; range 1-14, control 11, P .006) was 5 days, the “Days to discharge from hospital (median)” value ([4]; range 3-19, control 11, P .008) was 5 days and the “Increase in mean absolute lymphocyte counts” value ([4]; untreated 0.03, P=0.04) was 4.6e+08 L⁻¹. For the same molecule, the “tolerability, frequency and severity of adverse events” value [5] was “very well tolerated”, the “hemoglobin on day 6 in one patient” value ([6]; 10.3 on day 0, renal biopsy day 2, subcapsular hematoma) was 7.9 g/dL and the “median time to discharge post-lenzilumab” value ([6]; 11 discharged patients, range 3-19) was 5 days. For the same molecule, the “patients with clinical improvement of at least 2 points on the 8-point ordinal scale” value ([6]; 11 of 12 patients) was 92% and 91.7%, the hematological toxicity ([6]; 12 patients) was “not associated with any hematological toxicity” and the “adverse events attributable to lenzilumab” value [6, 8] was “no treatment-emergent adverse events attributable to lenzilumab”. The infusion reactions [6, 8] was “no infusion reactions”, the “median time to a 2-point clinical improvement” value ([6]; 95% CI 2-7 days) was 5 days and the “time to resolution of fever in patients febrile at baseline” value ([6]; after lenzilumab administration) was ≤ 48 h. The “Lymphocytes 1st Lab, summary of patients 1-5” value ([6]; average of 5 patients) was 1.044, the “Lymphocytes Last Value, summary of patients 1-5” value ([6]; average of 5 patients) was 1.422 and the “Lymphocytes Low, summary of patients 1-5” value ([6]; average of 5 patients) was 0.912. For the same molecule, the “Neutrophils 1st Lab, unlabelled summary line of patients 1-5” value ([6]; average of 5 patients) was 3.892, the “Neutrophils High, summary of patients 1-5” value ([6]; average of 5 patients) was 6.008 and the “Neutrophils Last Value, summary of patients 1-5” value ([6]; average of 5 patients) was 3.98. For the same molecule, the “mean IL-6 on day 3” value ([6]; baseline 26.8 pg/mL, p=0.035) was 16.1 pg/mL, the “mean CRP on day 3” value ([6]; baseline 137.3 mg/L, p=0.040) was 51.2 mg/L and the “mean absolute lymphocyte count day 3” value ([6]; baseline 0.89, p=0.107) was 1.14e+09 L⁻¹. The “mean absolute neutrophil count day 3” value ([6]; baseline 5.1, p=0.27) was 4.8e+09 L⁻¹, the “mean hemoglobin day 3” value ([6]; baseline 12.9, p=0.89) was 11.4 g/dL and the “mean temperature at day 3” value ([6]; baseline 37.95, p=0.023) was 36.97. The “proportion of patients with SpO2/FiO2<315 at end of observation” value ([6]; baseline 67%, p=0.00015) was 8%, the “mean platelet count day 3” value ([6]; baseline 217.7, p=0.001) was 2.618e+11 L⁻¹ and the deaths / mortality [6] was “no reported mortality”. For the same molecule, the deaths / mortality ([6]; listed as lenzilumab) was “no deaths”, the “patients discharged on home oxygen” value ([6]; five patients) was 42% and the ferritin after lenzilumab ([6]; individual patient narratives) was 571 µg/L. For the same molecule, the CRP after lenzilumab ([6]; individual patient narratives, dates in text) was 91 mg/L and 46 mg/L, the D-dimer after lenzilumab [6, 9] was 1507 ng/mL and 1759 ng/mL and 1802 ng/mL and the ferritin after lenzilumab [6, 9] was 1143 µg/L. For the same molecule, the “IL-6 post Rx” value ([6]; individual patients, data to Apr. 13, 2020) was 4.6 pg/mL, the ALT after lenzilumab [6] was 175 and the AST after lenzilumab [6] was 96. For the same molecule, the ALT after lenzilumab ([6]; listed as lenzilumab) was 169 and 137, the AST after lenzilumab ([6]; listed as lenzilumab) was 203 and 118 and the “patients whose SpO2/FiO2 improved to >315 on day 1” value ([6]; of 8 patients <315 at baseline) was “four”. For the same molecule, the “patients with 2-point improvement” value ([6]; of 12) was 1 patients, the “patients with ≥3-point improvement” value ([6]; of 12) was 10 patients and the “patients requiring invasive mechanical ventilation” value ([6]; one patient) was 8.3%. For the same molecule, the “cytokines of the cytokine storm (G-CSF, MDC, GM-CSF, IL-1α, IFN-γ, IL-7, FLT-3L, IL-1rα, IL-6, IL-12p70)” value [6, 7] was “significant reduction”, the IL-6 after lenzilumab ([6]; patient 4, April 8) was 95.4 pg/mL and the LDH after lenzilumab ([6]; patient 4, April 8) was 388 U/L. For the same molecule, the IL-6 after lenzilumab [6, 10] was 4.6, the ferritin after lenzilumab [6, 10] was 1223 and the “hemoglobin at last study observation, same patient” value ([6]; patient with subcapsular hematoma) was 9.3 g/dL. The “patients requiring mechanical invasive ventilation” value ([6]; patients 1-5) was “None” and the “time to clinical two-point improvement faster than comparators” value ([6]; vs Remdesivir, Lopinavir-Ritonavir (and Tocilizumab)) was “more than 50%”.
